US20020177203A1, “Alpha2 subunit of prolyl 4-hydroxylase” (priority 1996, published 2002)

Legend:
[1] = target: mouse/human type 2 prolyl 4-hydroxylase tetramer (mouse; human) (UniProt P07237); experiment: cell-based or functional assay
[2] = target: human type 1 prolyl 4-hydroxylase tetramer (human) (UniProt P13674); experiment: inhibition of prolyl 4-hydroxylase activity (2-oxo[1-14C]glutarate decarboxylation), insect cell extract
Sequence of human type 1 prolyl 4-hydroxylase tetramer (human) (P13674 18-534, chain 1 of 2): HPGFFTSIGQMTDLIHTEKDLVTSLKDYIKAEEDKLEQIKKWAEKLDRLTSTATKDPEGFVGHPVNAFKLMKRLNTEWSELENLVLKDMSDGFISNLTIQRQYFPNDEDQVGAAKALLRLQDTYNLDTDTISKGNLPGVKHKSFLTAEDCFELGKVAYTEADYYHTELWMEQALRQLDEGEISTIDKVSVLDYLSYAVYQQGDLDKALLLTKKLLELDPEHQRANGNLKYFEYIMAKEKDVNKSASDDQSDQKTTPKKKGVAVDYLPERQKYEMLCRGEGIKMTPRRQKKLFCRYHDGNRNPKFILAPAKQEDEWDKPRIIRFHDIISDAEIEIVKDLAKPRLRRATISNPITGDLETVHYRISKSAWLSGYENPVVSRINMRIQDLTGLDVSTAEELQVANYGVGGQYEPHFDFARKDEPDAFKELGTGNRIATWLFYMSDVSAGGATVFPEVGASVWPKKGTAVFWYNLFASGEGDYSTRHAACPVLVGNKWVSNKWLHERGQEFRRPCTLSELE
Sequence of human type 1 prolyl 4-hydroxylase tetramer (human) (P07237 18-508, chain 2 of 2, further chain): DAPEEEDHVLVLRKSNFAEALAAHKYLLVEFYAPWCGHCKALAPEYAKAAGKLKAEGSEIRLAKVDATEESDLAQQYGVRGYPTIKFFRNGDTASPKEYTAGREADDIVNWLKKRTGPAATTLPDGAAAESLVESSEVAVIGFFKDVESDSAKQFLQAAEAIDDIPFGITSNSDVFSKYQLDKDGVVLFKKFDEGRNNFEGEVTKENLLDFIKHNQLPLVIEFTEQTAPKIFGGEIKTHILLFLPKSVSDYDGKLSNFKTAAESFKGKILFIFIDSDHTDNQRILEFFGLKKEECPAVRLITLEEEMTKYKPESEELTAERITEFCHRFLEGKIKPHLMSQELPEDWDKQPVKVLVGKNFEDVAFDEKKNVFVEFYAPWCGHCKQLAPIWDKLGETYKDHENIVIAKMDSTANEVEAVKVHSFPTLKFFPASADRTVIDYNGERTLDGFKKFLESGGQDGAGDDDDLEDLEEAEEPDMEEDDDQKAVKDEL

Sequence of mouse/human type 2 prolyl 4-hydroxylase tetramer (mouse; human) (chain, as listed by the source, chain 1 of 2): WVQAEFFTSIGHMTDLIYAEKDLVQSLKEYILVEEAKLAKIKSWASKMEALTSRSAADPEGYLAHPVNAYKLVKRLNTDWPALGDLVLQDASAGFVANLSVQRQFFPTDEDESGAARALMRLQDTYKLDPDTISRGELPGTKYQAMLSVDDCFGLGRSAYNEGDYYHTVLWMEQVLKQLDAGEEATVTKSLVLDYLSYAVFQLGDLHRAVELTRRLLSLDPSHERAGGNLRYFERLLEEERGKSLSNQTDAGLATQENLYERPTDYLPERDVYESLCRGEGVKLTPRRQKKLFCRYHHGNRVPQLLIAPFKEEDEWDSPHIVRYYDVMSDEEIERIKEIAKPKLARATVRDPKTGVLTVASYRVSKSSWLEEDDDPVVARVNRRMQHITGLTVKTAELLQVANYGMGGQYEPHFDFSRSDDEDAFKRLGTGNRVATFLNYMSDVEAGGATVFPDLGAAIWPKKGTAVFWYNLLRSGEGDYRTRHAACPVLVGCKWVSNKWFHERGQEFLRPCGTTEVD
Sequence of mouse/human type 2 prolyl 4-hydroxylase tetramer (mouse; human) (P07237 18-508, chain 2 of 2): as the sequence (P07237 18-508, chain 2 of 2, further chain) above

Substance	IC50 (inhibition of prolyl 4-hydroxylase activity; printed in the Ki row) [1]	Ki [2]
Poly(L-proline), Mr 44,000 (peptide)	30 µM	0.02 µM
Poly(L-proline), Mr 7000 (peptide)	300 µM	0.5 µM
